# Data from publication PMC6801465.
# Molecular target: EGFR on the cell surface (Huh-7, U87MG, MDA-MB-231) (human) (UniProt P00533)
# Assay: flow cytometry
# Settings: 2'-OMe on U, G, C, all A (positions 8, 14, 19, 21, 24) are DNA, Binding buffer: serum-free DMEM + 100 ug/mL tRNA, aptamers denatured 95 C 5 min, snap cooled on ice 10 min, ELONA 1 h (temperature not given)
sequence,measurement,setting,value
UGCUUUGAUGUCGAUUCGACAGGAGGC [CL-4RNV616],Kd,Huh-7 cells,0.0712 µM
same,Kd,MDA-MB-231 cells,0.0898 µM
same,Kd,U87MG cells,0.112 µM
